The target in the assay is mitochondrial RNA polymerase (POLRMT), residues 42-1230 (human, UniProt O00411 42-1230). Kind of assay: ITC. In general terms: ITC needs no label: the signal is the heat of the interaction.

For one molecule, Kd and dH results are on record in article PMC3973321 (Nucleic Acids Research, 2014).

mitochondrial RNA polymerase (POLRMT), residues 42-1230, sequence (O00411 42-1230): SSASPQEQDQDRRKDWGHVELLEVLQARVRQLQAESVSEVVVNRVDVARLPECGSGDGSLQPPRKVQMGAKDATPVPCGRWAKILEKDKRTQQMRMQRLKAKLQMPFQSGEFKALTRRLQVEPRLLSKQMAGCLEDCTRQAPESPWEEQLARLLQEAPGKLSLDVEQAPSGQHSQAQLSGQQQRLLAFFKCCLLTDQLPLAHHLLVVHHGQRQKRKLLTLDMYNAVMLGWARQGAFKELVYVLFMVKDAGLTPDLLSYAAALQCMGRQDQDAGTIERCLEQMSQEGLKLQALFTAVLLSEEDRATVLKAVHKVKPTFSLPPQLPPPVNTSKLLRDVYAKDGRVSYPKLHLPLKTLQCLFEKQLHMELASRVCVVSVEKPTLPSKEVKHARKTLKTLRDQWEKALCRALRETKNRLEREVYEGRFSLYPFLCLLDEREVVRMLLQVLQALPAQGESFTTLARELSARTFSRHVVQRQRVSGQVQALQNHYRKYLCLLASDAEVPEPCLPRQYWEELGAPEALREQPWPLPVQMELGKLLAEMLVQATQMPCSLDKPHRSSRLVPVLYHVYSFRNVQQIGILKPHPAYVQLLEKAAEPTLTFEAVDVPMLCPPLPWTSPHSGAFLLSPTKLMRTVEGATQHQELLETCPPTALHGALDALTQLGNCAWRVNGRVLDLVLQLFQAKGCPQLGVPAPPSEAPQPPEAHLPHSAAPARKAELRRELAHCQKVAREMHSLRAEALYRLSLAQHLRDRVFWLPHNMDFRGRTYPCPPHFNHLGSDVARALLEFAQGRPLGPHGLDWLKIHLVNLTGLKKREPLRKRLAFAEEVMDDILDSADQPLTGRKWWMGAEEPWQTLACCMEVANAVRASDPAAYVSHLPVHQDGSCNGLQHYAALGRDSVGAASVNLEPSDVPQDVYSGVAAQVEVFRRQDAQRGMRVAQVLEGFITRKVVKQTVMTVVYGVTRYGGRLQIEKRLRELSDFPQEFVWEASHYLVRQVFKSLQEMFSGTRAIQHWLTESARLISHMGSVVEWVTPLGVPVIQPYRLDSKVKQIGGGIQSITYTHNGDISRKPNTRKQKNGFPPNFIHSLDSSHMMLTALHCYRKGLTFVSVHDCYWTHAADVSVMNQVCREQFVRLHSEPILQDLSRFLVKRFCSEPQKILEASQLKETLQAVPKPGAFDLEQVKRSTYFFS

B1: TFAM, residues 43-246 (natural protein)
chain: SSVLASCPKKPVSSYLRFSKEQLPIFKAQNPDAKTTELIRRIAQRWRELPDSKKKIYQDAYRAEWQVYKEEISRFKEQLTPSQIMSLEKEIMDKHLKRKAMTKKKELTLLGKPKRPRSAYNVYVAERFQEAKGDSPQEKLKTVKENWKNLSDSEKELYIQHAKEDETRYHNEMKSWEEQMIEVGRKDLLRRTIKKQRKYGAEEC
B1: the affinity, expressed as Kd, was 4.6 µM and the dH was found to be 11.1 kcal/mol.
